Among the data in article PMC5796892, “Leishmania donovani Inhibitor of Serine Peptidases 2 Mediated Inhibition of Lectin Pathway and Upregulation of C5aR Signaling Promote Parasite Survival inside Host” (Frontiers in Immunology, 2018) are Ka and Kd values, retold here.

The Kd is the equilibrium constant for the complex coming apart. The low end stands for a tighter complex, the high end for a looser complex.

What all share (conditions): both partners purified
Assay [1] concerns the target T1, C1 complex (C1qr2s2) (human, UniProt P02745 23-245; P02746 28-253; P02747 29-245).
T1 construct: Complement C1q, subunit A; Complement C1q, subunit B; Complement C1q, subunit C; Complement C1r, serine protease of the C1 complex; the PDB entry was used only for docking and holds a fragment; Complement C1s, serine protease of the C1 complex; Held on plates coated with human IgM; also called C1 component; source: bought: Merk-Millipore (purified C1 complex); copies: + + + 2 + 2
As to the kind of experiment: ELISA; C1 complex at 25 µg/ml bound to human IgM-coated plate (37°C, 2 h); rLdISP1/rLdISP2 0-50 µM added, 37°C, 2 h; bound ISP detected with anti-ISP1 or anti-ISP2 antibody; Kd taken as the free ligand at half saturation. (In general: An ELISA detects its analyte on a solid surface through an enzyme-linked reagent.)

Assay [2] addresses T1, C1 complex (C1qr2s2). Kind of assay: ELISA; C1 complex at 12.5 µg/ml bound to human IgM-coated plate (37°C, 2 h); rLdISP1/rLdISP2 0-50 µM added, 37°C, 2 h; bound ISP detected with anti-ISP1 or anti-ISP2 antibody; Kd taken as the free ligand at half saturation.
Assay [3] has as its target T1, C1 complex (C1qr2s2). As to the kind of experiment: ELISA; C1 complex at 50 µg/ml bound to human IgM-coated plate (37°C, 2 h); rLdISP1/rLdISP2 0-50 µM added, 37°C, 2 h; bound ISP detected with anti-ISP1 or anti-ISP2 antibody; Kd taken as the free ligand at half saturation.
Assay [4] has as its target T1, C1 complex (C1qr2s2). As to the kind of experiment: ELISA; C1 complex at 6.25 µg/ml bound to human IgM-coated plate (37°C, 2 h); rLdISP1/rLdISP2 0-50 µM added, 37°C, 2 h; bound ISP detected with anti-ISP1 or anti-ISP2 antibody; Kd taken as the free ligand at half saturation.
In assay [5] the target is T1, C1 complex (C1qr2s2). Kind of assay: ELISA; C1 complex at 100 µg/ml bound to human IgM-coated plate (37°C, 2 h); rLdISP1/rLdISP2 0-50 µM added, 37°C, 2 h; bound ISP detected with anti-ISP1 or anti-ISP2 antibody; Kd taken as the free ligand at half saturation.

B1: recombinant Leishmania donovani inhibitor of serine peptidases 1 (natural protein)
chain: MSYCKIEAPYPTAEAGEKRIIFALDPKGDEAEQEQYMLQLIPGRVLEMSRNDAANHQTLGGSIEQHTVEGWGAKFFHVKLAKQAASTLMHVHDEDHSEKVRKFVAMPNPPLFPYRSRCPVVVYLPNDAELRYGIWCGGQQMQAVTE
With B1, the Ka with C1 complex (C1qr2s2) [1] was 330000 M⁻¹; with C1 complex (C1qr2s2) [2] it was 280000 M⁻¹; in the assay with C1 complex (C1qr2s2) [3], 450000 M⁻¹; in the assay with C1 complex (C1qr2s2) [4], 260000 M⁻¹; in the assay with C1 complex (C1qr2s2) [5], 625000 M⁻¹. Besides, the Kd was found to be 2800 nM with C1 complex (C1qr2s2) [1]; 3500 nM in the assay with C1 complex (C1qr2s2) [2]; 2200 nM with C1 complex (C1qr2s2) [3]; 3800 nM in the assay with C1 complex (C1qr2s2) [4]; 1600 nM with C1 complex (C1qr2s2) [5].
